Laboratory results as given in patent US20240374671A1 (ACCELERON PHARMA, published 2024).
Substitutions are numbered along the chain they refer to. Like-named read-outs stand apart in the source and are kept apart here. Blank lines part the entries; values can stand above or below the binder they belong to.

How the values were obtained:
monomeric hActRIIB [1] = target: T1, monomeric hActRIIB (human, UniProt Q13705 25-130, limits assumed); test: SPR (Biacore), 37 C
T1 construct: also called ActRIIB MONOMER; ActRIIB monomer
T1 sequence: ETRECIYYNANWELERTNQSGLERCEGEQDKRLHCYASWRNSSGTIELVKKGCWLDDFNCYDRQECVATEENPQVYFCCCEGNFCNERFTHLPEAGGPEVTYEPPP

dimeric hActRIIB [2] = target: T2, dimeric hActRIIB (human, UniProt Q13705 25-130); test: SPR (Biacore), 37 C
T2 construct: also called ActRIIB DIMER; ActRIIB dimer
T2 sequence: T1 sequence

monomeric hActRIIA [3] = target: T3, monomeric hActRIIA (human, UniProt P27037 21-138, limits assumed); test: SPR (BIACORE), 37 C, series of concentrations (not printed on the sheet)
T3 construct: also called ActRIIA MONOMER; ActRIIA monomer

dimeric hActRIIA [4] = target: T4, dimeric hActRIIA (human, UniProt P27037 21-138); test: as above
T4 construct: also called ActRIIA DIMER; ActRIIA dimer

[5] = target: T5, human ActRIIB ECD (peptide library) (human, UniProt Q13705 25-130); test: Pepscan peptide library ELISA (linear 15-mers and CLIPS)
T5 construct: also called AcRIIB
T5 sequence: T1 sequence
Experimental: Mapping of the ActRIIB and ActRIIA ECD epitopes recognized by the antibodies was performed by Pepscan Presto BV using custom made peptide libraries. Sequences of ECDs of human ActRIIB and ActRIIA were converted into libraries of overlapping linear 15-mers and circularized 15-mer CLIPS using combinatorial matrix design. CLIPS (Chemical Linkage of Peptides onto Scaffolds) technology structurally fixes peptides into defined three-dimensional structures (single, double, triple, etc. loops) creating functional mimics of complex binding sites. Peptides were synthesized on solid support. Binding of antibodies to each of the synthesized peptides was tested by ELISA and binding affinities were quantified. Peptide constructs representing both parts of the discontinuous epitope in the correct conformation bind specific antibody with the highest affinity. […] Each peptide was given a score based on affinity.

monomeric hActRIIA [6] = target: T3, monomeric hActRIIA; test: SPR (Biacore), 37 C
dimeric hActRIIA [7] = target: T4, dimeric hActRIIA; test: SPR (Biacore), 37 C
monomeric hActRIIB [8] = target: T1, monomeric hActRIIB; test: SPR (Biacore), 37 C; remark: listed apart in the source
dimeric hActRIIB [9] = target: T2, dimeric hActRIIB; test: SPR (Biacore), 37 C; remark: listed apart in the source
monomeric hActRIIA [10] = target: T3, monomeric hActRIIA; test: SPR (Biacore), 37 C; remark: listed apart in the source
dimeric hActRIIA [11] = target: T4, dimeric hActRIIA; test: SPR (Biacore), 37 C; remark: listed apart in the source
monomeric hActRIIA [12] = target: T3, monomeric hActRIIA; test: SPR (Biacore), 37 C; remark: listed apart in the source
Experimental: (§1) Kinetic characterization of G02 antibody binding to monomeric and dimeric hActRIIB and hActRIIA was performed using standard BIACORE®-based analysis at 37° C. FIGS. 8A-8D show kinetic characterization of G02 antibody binding to monomeric and dimeric hActRIIB and hActRIIA (FIG. 8A-8D, respectively) as determined by BIACORE®-based analysis at 37° C.

dimeric hActRIIA [13] = target: T4, dimeric hActRIIA; test: SPR (Biacore), 37 C; remark: listed apart in the source
Experimental: as §1

monomeric hActRIIB [14] = target: T1, monomeric hActRIIB; test: SPR (BIACORE), 37 C, series of concentrations (not printed on the sheet)
Experimental: as §1

dimeric hActRIIB [15] = target: T2, dimeric hActRIIB; test: as above
Experimental: as §1

T4 sequence (P27037 21-138): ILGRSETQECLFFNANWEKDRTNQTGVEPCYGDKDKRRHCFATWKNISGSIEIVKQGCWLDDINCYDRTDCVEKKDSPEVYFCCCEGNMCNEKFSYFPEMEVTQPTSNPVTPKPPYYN
T3 sequence (P27037 21-138 limits assumed): as the sequence (P27037 21-138) above

B1: G01 (antibody, human IgG1, kappa, V domains shown)
VH: QLQLQESGPGLVKPSETLSLTCTVSGGSISSSSYAWGWIRQPPGKGLEWIGSIYYSGSTYYNPSLKSRVTISVDTSKNQFSLKLSSVTAADTAVYYCARAGKYRWHGMDVWGQGTTVTVSS
VL: DIQMTQSPSSVSASVGDRVTITCRASQGISSWLAWYQQKPGKAPKLLIYAASNLQSGVPSRFSGSGSGTDFTLTISSLQPEDFATYYCQQAPDLPITFGGGTKVEIKR
notes: Human IgG; also called G01 Parent; G01 (naïve parent)
Kd (monomeric hActRIIB [1]): 16.8 nM
koff (monomeric hActRIIB [1]): 0.0152 s⁻¹
kon (monomeric hActRIIB [1]): 905000 M⁻¹ s⁻¹
Kd (dimeric hActRIIB [2]): 1.14 nM
koff (dimeric hActRIIB [2]): 0.00022 s⁻¹
kon (dimeric hActRIIB [2]): 176000 M⁻¹ s⁻¹
binding result (monomeric hActRIIA [3]): no binding
binding result (dimeric hActRIIA [4]): no binding

B3: H01 (antibody, human IgG1, kappa, V domains shown)
VH: QVQLQESGPGLVKPSETLSLTCAVSGYSISSGVYWMWIRQPPGKGLEWIGSIVHSGHTYYNPSLKSRVTISVDTSKNQFSLKLSSVTAADTAVYYCARAGKYRWHGMDVWGQGTTVTVSS
VL: B1 VL
notes: Human IgG
Kd (monomeric hActRIIB [1]): 11.8 nM
koff (monomeric hActRIIB [1]): 0.023 s⁻¹
kon (monomeric hActRIIB [1]): 1.95e+06 M⁻¹ s⁻¹
Kd (dimeric hActRIIB [2]): 0.353 nM
koff (dimeric hActRIIB [2]): 0.000127 s⁻¹
kon (dimeric hActRIIB [2]): 358000 M⁻¹ s⁻¹
binding result (monomeric hActRIIA [6]): no binding
binding result (dimeric hActRIIA [7]): no binding

Second part, the binder after the results:

binding result [5]: binds
B2: I01 (antibody, human IgG4 S228P, kappa, V domains shown)
VH: EVQLLESGGGLVQPGGSLRLSCAASGFTFGSYGMTWVRQAPGKGLEWVSVISGSGGGTYYADSVKGRFTISRDNSKNTLYLQMNSLRAEDTAVYYCAKGPRIVGMDVWGQGTTVTVSS
VL: B1 VL with N53S, A91V, P92F, D93S, L94Y, I96L

Kd (monomeric hActRIIB [8]): 2.63 nM
koff (monomeric hActRIIB [8]): 0.000313 s⁻¹
kon (monomeric hActRIIB [8]): 119000 M⁻¹ s⁻¹
Kd (dimeric hActRIIB [9]): 0.738 nM
koff (dimeric hActRIIB [9]): 3.46e-05 s⁻¹
kon (dimeric hActRIIB [9]): 46900 M⁻¹ s⁻¹
binding result (monomeric hActRIIA [10]): no binding
binding result (dimeric hActRIIA [11]): no binding
B4: F02 (antibody, human IgG1, kappa, V domains shown)
VH: EVQLLESGGGLVQPGGSLRLSCAASGFTFSRYAMSWVRQAPGKGLEWVSGISGSGGATYYADSVKGRFTISRDNSKNTLYLQMNSLRAEDTAVYYCAKDPLSLLLGYFDYWGQGALVTVSS
VL: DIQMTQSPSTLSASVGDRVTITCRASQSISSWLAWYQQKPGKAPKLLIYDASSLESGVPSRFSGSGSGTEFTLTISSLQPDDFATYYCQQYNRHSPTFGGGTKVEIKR
notes: Human IgG; also called F02 variant; F02 optimized antibody

Kd (monomeric hActRIIA [12]): 58 nM
koff (monomeric hActRIIA [12]): 0.0661 s⁻¹
kon (monomeric hActRIIA [12]): 1.14e+06 M⁻¹ s⁻¹
Kd (dimeric hActRIIA [13]): 1.48 nM
koff (dimeric hActRIIA [13]): 0.000275 s⁻¹
kon (dimeric hActRIIA [13]): 186000 M⁻¹ s⁻¹
binding result (monomeric hActRIIB [14]): no binding
binding result (dimeric hActRIIB [15]): no binding
B5: G02 (antibody, human IgG1, kappa, V domains shown)
VH: QVQLQESGPGLVKPSQTLSLTCTVSGGSISSGSYYWSWIRQHPGKGLEWIGYIYYSGSTYYNPSLKSRVTISVDTSKNQFSLKLSSVTAADTAVYYCARGLGMYYHVPFDIWGQGTMVTVSS
VL: EIVLTQSPATLSLSPGERATLSCRASQSVSSYLAWYQQKPGQAPRLLIYDASNRATGIPARFSGSGSGTDFTLTISSLEPEDFAVYYCQQYFHWPPTFGGGTKVEIKR
notes: Human IgG
